“Also recorded” adds a separate entry of the source.
Assays:
[1] = test system: rheumatoid synovial cells; conditions: upon treatment; cited from earlier work
Col4a3−/− mice [2] = test: Lifespan study in Col4a3−/− mice, anti-IL11 and ramipril alone or in combination, Example 3; type: in vivo, mouse; conditions: X203 20 mg/kg twice a week, ramipril 10 mg/kg 6 days/week, from 6 weeks of age; for mean percentage lifespan extension: over lifespan of untreated Col4a3−/− mice
Method: Col4a3^−/− (Col4a3^tm1Dec) mice were housed as described in Example 2.2. For lifespan studies, the mice were intraperitoneally administered either anti-IL11 (X203; twice a week, 20 mg/kg) or IgG isotype control (11 E10; twice a week, 20 mg/kg) alone or in combination with ramipril (10 mg/kg; 6 days/week) starting from 6 weeks of age, until death ensued.

Col4a3−/− mice [3] = conditions: cited from earlier work
IL-11Rα = biological target: T1, IL-11Rα (Homo sapiens, UniProt Q14626); conditions: low affinity; cited from earlier work
T1 sequence (Q14626 23-422): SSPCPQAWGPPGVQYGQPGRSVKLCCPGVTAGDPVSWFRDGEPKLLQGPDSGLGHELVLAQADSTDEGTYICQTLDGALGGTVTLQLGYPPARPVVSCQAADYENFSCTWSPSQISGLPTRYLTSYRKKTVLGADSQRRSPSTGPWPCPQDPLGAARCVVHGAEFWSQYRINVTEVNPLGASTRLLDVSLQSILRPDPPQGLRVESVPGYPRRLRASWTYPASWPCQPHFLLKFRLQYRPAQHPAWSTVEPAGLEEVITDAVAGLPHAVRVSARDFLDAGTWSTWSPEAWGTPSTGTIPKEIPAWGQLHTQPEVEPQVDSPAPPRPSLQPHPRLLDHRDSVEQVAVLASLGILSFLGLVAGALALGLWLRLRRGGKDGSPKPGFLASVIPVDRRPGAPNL

129-Col4a3^tm1Dec/J mice = test: Survival of mice homozygous for Col4a3^tm1Dec (mouse model of Alport syndrome), Example 1; type: in vivo; conditions: 20 mg/kg i.p. biweekly from 6 weeks of age until mortality
From the text: 129-Col4a3^tm1Dec/J mice were obtained from The Jackson Laboratory (Stock No:002908; COL4A3 KO). The mice comprise the Col4a3^tm1Dec mutation described e.g. in Cosgrove et al., Genes Dev. (1996) 10:2981-2992, which is hereby incorporated by reference in its entirety. 129-Col4a3^tm1Dec/J mice comprise a targeted mutation to Col4a3, resulting in progressive glomerulonephritis with microhematuria and proteinuria, and mice homozygous for the mutation typically die at about 8.5 weeks.
From 6 weeks of age, mice homozygous for the Col4a3^tm1Dec mutation were administered biweekly by intraperitoneal injection of 20 mg/kg of Enx203, or an isotype-matched control antibody, until mortality.

Col4a3−/− mice [4] = test: Treatment study in Col4a3−/− mice: Western blot of kidney protein extracts; type: in vivo, mouse; conditions: vs IgG
Method: (§1) Col4a3^−/− (Col4a3^tm1Dec) mice were purchased from The Jackson Laboratory (https://www.jax.org/strain/002908). Mice were housed in temperatures of 21-24° C. with 40-70% humidity on a 12 h light/12 h dark cycle and provided with food and water ad libitum. For treatment study, Col4a3^−/− were administered 20 mg/kg of anti-IL11 (X203) or IgG isotype control (11 E10) by intraperitoneal (IP) injection starting from 6 weeks of age twice a week for 2.5 weeks; wild-type littermates were used as controls. Mice were sacrificed for blood and kidney collection when they were 8.5-week-old. For lifespan study, IgG/X203 was administered to 6-week-old Col4a3^−/− (2×/week) until death ensued.
Western blot was carried out on total protein extracts from mouse kidney tissues. Kidneys were lysed in radioimmunoprecipitation assay (RIPA) buffer containing protease and phosphatase inhibitors (Thermo Scientifics), followed by centrifugation to clear the lysate. Protein concentrations were determined by Bradford assay (Bio-Rad). Protein lysates were separated by SDS-PAGE, transferred to PVDF membrane, and subjected to immunoblot analysis for various antibodies as outlined in the main text, figures, or and/or figure legends. Proteins were visualized using the ECL detection system (Pierce) with the appropriate secondary antibodies: anti-rabbit HRP or antimouse HRP.

Col4a3−/− mice [5] = test: Lifespan study in Col4a3−/− mice, Example 2; type: in vivo, mouse
Method: as §1
Statistical analyses were performed using GraphPad Prism software (version 8). Statistical significance between control and experimental groups were analysed by twosided Student's t tests or by one-way ANOVA as indicated in the figure legends. P values were corrected for multiple testing according to Tukey when several conditions were compared to each other within one experiment. Comparison analysis for two parameters from two different groups were performed by two-way ANOVA. Survival curves were analyzed by Gehan-Breslow-Wilcoxon test. The criterion for statistical significance was P<0.05.

Col4a3−/− mice [6] = test: Treatment study in Col4a3−/− mice: renal fibrosis (total renal collagen content, Masson's Trichrome staining); type: in vivo, mouse; conditions: 20 mg/kg 2x/week for 2.5 weeks from 6 weeks of age; vs IgG
Method: as §1
Kidney tissues were fixed for 48 hours at RT in 10% neutral-buffered formalin (NBF), dehydrated, embedded in paraffin, and sectioned at 7 μm. Transverse kidney sections were then stained with Masson's Trichrome according to standard protocol. Images of the sections were captured by light microscopy and blue-stained fibrotic areas were semi-quantitatively determined with Image-J software (color deconvolution-Masson Trichrome) from the whole kidney area (100×field, n=4 kidneys/group). Treatment and genotypes were not disclosed to investigators performing the histology and generating semi-quantitative readouts.

Col4a3−/− mice [7] = test: Treatment study in Col4a3−/− mice: renal function (BUN, serum creatinine, urinary albumin:creatinine) by colorimetric assays/ELISA; type: in vivo, mouse; conditions: study end, 8.5 weeks of age; X203 from week 6
Method: as §1
The levels of blood urea nitrogen (BUN) and creatinine in mouse serum were measured using Urea Assay Kit (ab83362, Abcam) and Creatinine Assay Kit (ab65340, Abcam), respectively. Urine albumin and creatinine levels were measured using Mouse Albumin ELISA kit (ab108792, Abcam) and Creatinine Assay Kit (ab204537, Abcam), respectively. All ELISA and colorimetric assays were performed according to the manufacturer's protocol.

Col4a3−/− mice [8] = test: Treatment study in Col4a3−/− mice: body weight and kidney weight; type: in vivo, mouse
Method: as §1
Over recent years, antibodies that inhibit IL11 signaling in mouse and human cells have been developed^15,17. One of these neutralizing IL11 antibodies (X203) or an IgG control were administered to 6-week-old Col4a3^−/− mice, the time point when initiation of ramipril has proven ineffective^6, and examined renal pathologies at 8.5 weeks of age, as compared to age-matched wild-type controls (FIG. 3A).

Col4a3−/− mice [9] = test: Treatment study in Col4a3−/− mice: renal mRNA expression by qPCR; type: in vivo, mouse
Method: as §1
Total RNA was extracted from snap-frozen kidney tissues using Trizol (Invitrogen) followed by RNeasy column (Qiagen) purification. cDNAs were synthesized with iScript™ cDNA synthesis kit (Bio-Rad) according to manufacturer's instructions. Gene expression analysis was performed on duplicate samples with either TaqMan (Applied Biosystems) or fast SYBR green (Qiagen) technology using StepOnePlus™ (Applied Biosystem) over 40 cycles. Expression data were normalized to GAPDH mRNA expression and fold change was calculated using […]. The sequences of specific TaqMan probes and SYBR green primers are available upon request.

Col4a3−/− mice [10] = test: Treatment study in Col4a3−/− mice: Wilms' Tumor 1 immunohistochemistry (podocytes); type: in vivo, mouse; conditions: blinded quantification; vs IgG, P=0.0002
Method: as §1
Kidneys were fixed in 10% neutral-buffered formalin (NBF), paraffinized, cut into 7 μm sections, incubated with primary antibodies overnight and visualized using an ImmPRESS HRP anti-rabbit IgG polymer detection kit (MP-7401, Vector Laboratories) with ImmPACT DAB Peroxidase Substrate (SK-4105, Vector Laboratories). Quantification of WT^+ve cells were performed in a blinded fashion from 4 images (200×field)/kidney (n=3-4 kidneys/group).

Molecule: COc1ccc2c(c1)c(CC(=O)O)c(C)n2C(=O)c1ccc(Cl)cc1 [indomethacin, reference compound]
- expression of IL-11 [1]: reduction in the expression of IL-11

Molecule: CCOC(=O)[C@H](CCc1ccccc1)N[C@@H](C)C(=O)N1[C@H](C(=O)O)C[C@@H]2CCC[C@@H]21 [ramipril]
- improvement of median survival over untreated mice (Col4a3−/− mice [2]): 14 days
- mean percentage lifespan extension (Col4a3−/− mice [2]): 25.40%
- beneficial effect of delayed treatment (Col4a3−/− mice [3]; treatment delayed until after proteinuria was established (6-week-old mice)): no beneficial effect; also recorded: ineffective
- kidney dysfunction and lifespan (Col4a3−/− mice [3]; treatment of 4-week-old mice, prior to onset of proteinuria and tubulointerstitial fibrosis): attenuated kidney dysfunction and prolonged lifespan

Molecule: interferon-gamma (IFNγ): interferon-gamma
- expression of IL-11 [1]: reduction in the expression of IL-11

B1: IL-11: pleiotropic cytokine, member of the IL-6 family; human sequence SEQ ID NO:1 (protein)
chain: PGPPAGSPRVSSDPRADLDSAVLLTRSLLADTRQLAAQMRDKFPADGDHSLDSLPTLAMSAGTLGSLQLPGVLTRLRVDLMSYLRHVQWLRRAGGPSLKTLEPELGALQARLERLLRRLQLLMSRLALPQAAPDQPVIPLGPPASAWGSIRAAHAILGGLHLTLDWAVRGLLLLKTRL
- Kd (IL-11Rα): ~22 nM

B2: Enx203: mouse anti-mouse IL-11 IgG, neutralizing; VH SEQ ID NO:22, VL SEQ ID NO:23 (antibody, V domains shown)
VH: EVQLQQSGPELVKPGASVKIPCKASGYTFTDYNMDWVKQSHGKSLEWIGDINPHNGGPIYNQKFTGKATLTVDKSSSTAYMELRSLTSEDTAVYYCARGELGHWYFDVWGTGTTVTVSS
VL: DIVLTQSPASLAVSLGQRATISCRASKSVSTSGYSYIHWYQQKPGQPPKLLIYLASNLDSGVPARFSGSGSGTDFTLNIHPVEEEDAATYYCQHSRDLPPTFGGGTKLEIK
- increase in survival relative to mice treated with isotype-matched control antibody (129-Col4a3^tm1Dec/J mice): up to 40%
- ERK and STAT3 phosphorylation in kidneys (Col4a3−/− mice [4]; 20 mg/kg 2x/week for 2.5 weeks from 6 weeks of age): largely reduced; also recorded: largely diminished
- TGFβ upregulation in the kidneys (Col4a3−/− mice [4]; Western blot): significantly reduced the degree of TGFβ upregulation
- Caspase 3 activation (Col4a3−/− mice [4]; kidney Western blot (cleaved Caspase 3)): reduced
- alpha-smooth muscle actin (αSMA) and fibronectin protein (Col4a3−/− mice [4]; kidney, reduction seen on transcripts): confirmed at the protein level
- podocyte markers WT1 and Podocin by immunoblotting (Col4a3−/− mice [4]; kidney): restored towards normal; also recorded: Preservation of podocytes
- improvement of median survival over untreated mice (Col4a3−/− mice [2]): 28 days
- mean percentage lifespan extension (Col4a3−/− mice [2]): 41.93%
- median lifespan (Col4a3−/− mice [5]; 20 mg/kg 2x/week from 6 weeks of age until death, IgG control 62.5 days, P=0.0015): 88.5 days
- extension of median life span (Col4a3−/− mice [5]; from 62.5 to 88.5 days, vs IgG): 41.6%
- kidney fibrosis by biochemical and histological assessments (Col4a3−/− mice [6]): reduced severity of renal fibrosis; also recorded: significantly less kidney fibrosis
- serum blood urea nitrogen (BUN) (Col4a3−/− mice [7]): improved renal function; also recorded: markedly lowered
- serum creatinine (Cr) (Col4a3−/− mice [7]): improved renal function; also recorded: markedly lowered
- urinary albumin:creatinine ratio (ACR) (Col4a3−/− mice [7]): reduced albuminuria; also recorded: markedly lowered
- kidney mass (kidney weight) (Col4a3−/− mice [8]; 20 mg/kg 2x/week for 2.5 weeks from 6 weeks of age, vs IgG): preserved kidney mass
- total body weight loss as a percentage of starting body weight (Col4a3−/− mice [8]; 20 mg/kg i.p. 2x/week for 2.5 weeks from 6 weeks of age, end of study, IgG control 30%, P=0.0003): 17%
- renal levels of extracellular matrix genes (Col1a1, Col1a2, Col3a1, Fn), Acta2 and pro-fibrotic factors (Il11, Tgfb1) (Col4a3−/− mice [9]; mRNA, 20 mg/kg 2x/week for 2.5 weeks from 6 weeks of age, vs IgG): all reduced
- indicators of tubule damage (Kim1 and Ngal) (Col4a3−/− mice [9]; renal mRNA): restored by X203 administration towards the levels seen in wildtype mice
- Tnfα expression (Col4a3−/− mice [9]; renal mRNA, vs IgG): reduced Tnfα expression
- proinflammatory interleukins (Il6, Il1b) and CC chemokines (Ccl2, Ccl5) (Col4a3−/− mice [9]; renal mRNA, vs IgG): equally diminished
- number of WT1-positive cells (podocytes) (Col4a3−/− mice [10]): restored towards normal; also recorded: restoration of podocytes
